Experimental findings from the supplement of paper PMC9112550, “Optimization of the antimicrobial peptide Bac7 by deep mutational scanning” (BMC Biology, 2022) are described below.

For the series, the system named is Escherichia coli TOP10. Kind of series: shrunken log2 fold change of peptide-encoding DNA abundance (4.5 h post-induction vs induction); higher = less antimicrobial activity (less host growth inhibition). As to conditions: time post-induction: 4.5 h; library: site-saturation at positions 5, 18, 19, 20.
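Also: peptides expressed intracellularly from a pBAD plasmid library in pooled LB shake-flask culture, induced with 0.3% L-arabinose, DNA abundance read by NGS, three biological replicates, DESeq2 with apeglm shrinkage.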

Consider RRIRHRPPRLPRPRPRPDSDPRP, for which the “shrunken log2 fold change” value amounted to 0.0112.

Take RRIRARPPRLPRPRPRPPCEPRP: the “shrunken log2 fold change” value is 0.716. With RRIRKRPPRLPRPRPRPQRHPRP the figure was 1.73; with RRIRCRPPRLPRPRPRPNHPPRP, -0.153; with RRIRVRPPRLPRPRPRPEMIPRP, -0.0397. For the sequence RRIRWRPPRLPRPRPRPVWKPRP, the “shrunken log2 fold change” value stood at 0.0259. As for RRIRPRPPRLPRPRPRPFTSPRP, the “shrunken log2 fold change” value is -0.512. The value for RRIRCRPPRLPRPRPRPDNSPRP was -0.53; that for RRIRRRPPRLPRPRPRPNSQPRP was -0.154; that for RRIRRRPPRLPRPRPRPRLHPRP was 0.435.

RRIRVRPPRLPRPRPRPFTAPRP: the “shrunken log2 fold change” value is -0.317.

RRIRRRPPRLPRPRPRPYNGPRP: the “shrunken log2 fold change” value is -0.0173. As to RRIRSRPPRLPRPRPRPHNSPRP, the “shrunken log2 fold change” value is -0.357. The value for RRIRFRPPRLPRPRPRPVAFPRP was -0.141; that for RRIRYRPPRLPRPRPRPYPDPRP was -0.0152.

Turning to RRIRDRPPRLPRPRPRPLHQPRP, the “shrunken log2 fold change” value came out at 0.302.

For the sequence RRIRFRPPRLPRPRPRPLTHPRP, the “shrunken log2 fold change” value is -0.0881.

As to RRIRPRPPRLPRPRPRPLDCPRP, the “shrunken log2 fold change” value came out at 0.0595.

Take RRIRVRPPRLPRPRPRPHPWPRP: the “shrunken log2 fold change” value came to 0.0927.

Regarding RRIRMRPPRLPRPRPRPIAWPRP, the “shrunken log2 fold change” value is 0.201.

Take RRIRGRPPRLPRPRPRPGCAPRP: the “shrunken log2 fold change” value was 1.33.

Consider RRIRYRPPRLPRPRPRPVMGPRP, for which the “shrunken log2 fold change” value was -0.0133. On to RRIRRRPPRLPRPRPRPPYDPRP, for which the “shrunken log2 fold change” value came to 0.213. In the case of RRIRVRPPRLPRPRPRPYIIPRP, the “shrunken log2 fold change” value was -0.519. The value for RRIRTRPPRLPRPRPRPMWHPRP was -0.391. As for RRIRSRPPRLPRPRPRPYPYPRP, the “shrunken log2 fold change” value was -0.646. With RRIRWRPPRLPRPRPRPYNHPRP the figure was -1.43; with RRIRRRPPRLPRPRPRPLWYPRP, -0.166; with RRIRHRPPRLPRPRPRPNKFPRP, -0.284. The value for RRIRLRPPRLPRPRPRPGEPPRP was -0.0262.

Consider RRIRKRPPRLPRPRPRPLSPPRP, for which the “shrunken log2 fold change” value amounted to 0.615.

Regarding RRIRTRPPRLPRPRPRPLGAPRP, the “shrunken log2 fold change” value worked out at 0.0945. With RRIRTRPPRLPRPRPRPMLYPRP, the “shrunken log2 fold change” value was -0.131. The value for RRIRPRPPRLPRPRPRPYIDPRP was -0.331; that for RRIRFRPPRLPRPRPRPIVNPRP was 0.00221; that for RRIRTRPPRLPRPRPRPVEKPRP was -0.016.

Turning to RRIRCRPPRLPRPRPRPPLFPRP, the “shrunken log2 fold change” value was 0.934. With RRIRKRPPRLPRPRPRPILCPRP the figure was 0.00753; with RRIRSRPPRLPRPRPRPYKNPRP, -0.399; with RRIRWRPPRLPRPRPRPSWDPRP, 0.251. With RRIRTRPPRLPRPRPRPGIHPRP the figure was -0.158. The value for RRIRYRPPRLPRPRPRPTQWPRP was 0.413; that for RRIRHRPPRLPRPRPRPIEHPRP was -0.394. For the sequence RRIRCRPPRLPRPRPRPTRDPRP, the “shrunken log2 fold change” value came to 0.104.

Turning to RRIRYRPPRLPRPRPRPNFGPRP, the “shrunken log2 fold change” value is -0.126. Take RRIRGRPPRLPRPRPRPPVMPRP: the “shrunken log2 fold change” value was 0.333. The value for RRIRSRPPRLPRPRPRPKVGPRP was 0.176; that for RRIRIRPPRLPRPRPRPNKSPRP was -0.919; that for RRIRARPPRLPRPRPRPLMRPRP was 1.45. With RRIRTRPPRLPRPRPRPYSQPRP the figure was -0.0274; with RRIRPRPPRLPRPRPRPWHFPRP, -0.12; with RRIRERPPRLPRPRPRPRSAPRP, 0.25. Consider RRIRFRPPRLPRPRPRPHREPRP, for which the “shrunken log2 fold change” value was -0.0534.

On to RRIRVRPPRLPRPRPRPLVNPRP, for which the “shrunken log2 fold change” value was -0.244.

With RRIRARPPRLPRPRPRPADRPRP, the “shrunken log2 fold change” value was 0.256. With RRIRIRPPRLPRPRPRPKQVPRP the figure was -0.118; with RRIRVRPPRLPRPRPRPQQAPRP, -0.0616; with RRIRQRPPRLPRPRPRPTKVPRP, -0.0676.

For the sequence RRIRSRPPRLPRPRPRPFDKPRP, the “shrunken log2 fold change” value is -0.232. With RRIRPRPPRLPRPRPRPNLRPRP the figure was 0.197; with RRIRVRPPRLPRPRPRPAYAPRP, -0.129. With RRIRPRPPRLPRPRPRPDKYPRP the figure was -0.743. Consider RRIRWRPPRLPRPRPRPQHTPRP, for which the “shrunken log2 fold change” value is 0.0837.

For RRIRKRPPRLPRPRPRPANSPRP, the “shrunken log2 fold change” value was -0.0423. Turning to RRIRIRPPRLPRPRPRPKRIPRP, the “shrunken log2 fold change” value turned out to be 0.0468. With RRIRYRPPRLPRPRPRPVAEPRP the figure was -0.0801. The value for RRIRVRPPRLPRPRPRPAEGPRP was -0.0119. With RRIRRRPPRLPRPRPRPMAPPRP the figure was 0.665; with RRIRLRPPRLPRPRPRPSLGPRP, -0.213. Consider RRIRYRPPRLPRPRPRPHSLPRP, for which the “shrunken log2 fold change” value is -0.184. With RRIRWRPPRLPRPRPRPQNWPRP the figure was 0.215; with RRIRGRPPRLPRPRPRPLQMPRP, 2.6; with RRIRNRPPRLPRPRPRPIQTPRP, -0.0112. The value for RRIRARPPRLPRPRPRPRYDPRP was 0.166. RRIRERPPRLPRPRPRPIWAPRP: the “shrunken log2 fold change” value amounted to 0.639.

As to RRIRIRPPRLPRPRPRPHRFPRP, the “shrunken log2 fold change” value is -0.62. The value for RRIRIRPPRLPRPRPRPTMFPRP was -0.763; that for RRIRGRPPRLPRPRPRPCCNPRP was -0.265; that for RRIRWRPPRLPRPRPRPKVAPRP was 1.16. RRIRKRPPRLPRPRPRPGQRPRP: the “shrunken log2 fold change” value worked out at 0.328. In the case of RRIRQRPPRLPRPRPRPEPWPRP, the “shrunken log2 fold change” value was 0.153. The value for RRIRSRPPRLPRPRPRPKKGPRP was 0.0379. With RRIRFRPPRLPRPRPRPGFSPRP the figure was -0.407; with RRIRVRPPRLPRPRPRPLDAPRP, 0.571.

RRIRARPPRLPRPRPRPVCWPRP: the “shrunken log2 fold change” value was determined as 0.894.

In the case of RRIRDRPPRLPRPRPRPMSEPRP, the “shrunken log2 fold change” value was -0.00582. With RRIRVRPPRLPRPRPRPFIVPRP the figure was -0.285; with RRIRCRPPRLPRPRPRPGRLPRP, -0.0858. The value for RRIRGRPPRLPRPRPRPEFQPRP was 0.226; that for RRIRQRPPRLPRPRPRPNCPPRP was 0.0556; that for RRIRERPPRLPRPRPRPYSGPRP was -0.218. With RRIRWRPPRLPRPRPRPPICPRP the figure was -0.0702; with RRIRYRPPRLPRPRPRPMYTPRP, -0.597; with RRIRNRPPRLPRPRPRPPTMPRP, -0.126.

As for RRIRERPPRLPRPRPRPARFPRP, the “shrunken log2 fold change” value is 0.168. With RRIRLRPPRLPRPRPRPSYMPRP the figure was -0.802; with RRIRHRPPRLPRPRPRPKLYPRP, 0.0366. With RRIRVRPPRLPRPRPRPCTLPRP the figure was -0.196; with RRIRCRPPRLPRPRPRPDQYPRP, -0.277. The value for RRIRTRPPRLPRPRPRPGTKPRP was -0.122. For RRIRYRPPRLPRPRPRPMGMPRP, the “shrunken log2 fold change” value is -0.188.

Take RRIRARPPRLPRPRPRPDPLPRP: the “shrunken log2 fold change” value came out at 0.867. For the sequence RRIRMRPPRLPRPRPRPAMNPRP, the “shrunken log2 fold change” value was -0.00221. The value for RRIRYRPPRLPRPRPRPKYCPRP was 0.0325; that for RRIRERPPRLPRPRPRPKQIPRP was 0.169. With RRIRCRPPRLPRPRPRPVPPPRP the figure was 0.474. The value for RRIRVRPPRLPRPRPRPHHAPRP was -0.0431; that for RRIRHRPPRLPRPRPRPAWQPRP was 0.0329. As for RRIRMRPPRLPRPRPRPRMNPRP, the “shrunken log2 fold change” value is -0.138.

In the case of RRIRRRPPRLPRPRPRPWTRPRP, the “shrunken log2 fold change” value was -0.0224. With RRIRNRPPRLPRPRPRPFLAPRP the figure was -0.164; with RRIRFRPPRLPRPRPRPGFYPRP, -0.28; with RRIRCRPPRLPRPRPRPMRPPRP, 0.214. With RRIRERPPRLPRPRPRPEECPRP the figure was -0.000921; with RRIRLRPPRLPRPRPRPNAAPRP, -0.0536. Turning to RRIRPRPPRLPRPRPRPASRPRP, the “shrunken log2 fold change” value was 0.0846. With RRIRWRPPRLPRPRPRPMIMPRP the figure was -0.0612; with RRIRVRPPRLPRPRPRPHLAPRP, 0.101; with RRIRERPPRLPRPRPRPMINPRP, -0.0967. The value for RRIRPRPPRLPRPRPRPMFMPRP was 0.0765; that for RRIRRRPPRLPRPRPRPLWQPRP was 0.318. RRIRIRPPRLPRPRPRPWLCPRP: the “shrunken log2 fold change” value was -0.121.

Take RRIRARPPRLPRPRPRPLENPRP: the “shrunken log2 fold change” value stood at 0.595. With RRIRNRPPRLPRPRPRPPEKPRP, the “shrunken log2 fold change” value was 0.0323. With RRIRERPPRLPRPRPRPDHSPRP the figure was -0.184.
